The text below walks through data of publication PMC12475115, “Arabidopsis MYB47 and MYB95 transcription factors regulate jasmonate-inducible ER-body formation”.

The target in data set [1] is T1, GST-MYB47 (Arabidopsis thaliana, UniProt Q6R0C2 1-267).
T1 sequence: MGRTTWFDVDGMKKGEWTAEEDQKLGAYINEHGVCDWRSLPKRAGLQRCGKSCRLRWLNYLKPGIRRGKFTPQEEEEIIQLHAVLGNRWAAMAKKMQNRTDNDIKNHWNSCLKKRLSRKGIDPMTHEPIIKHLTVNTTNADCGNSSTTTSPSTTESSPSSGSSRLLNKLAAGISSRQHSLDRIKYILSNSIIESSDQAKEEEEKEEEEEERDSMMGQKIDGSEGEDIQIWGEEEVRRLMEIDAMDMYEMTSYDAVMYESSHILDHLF
Description: EMSA; 5 mM Mg2+; 10 mM Tris-HCl pH 7.5, 50 mM KCl, 1 mM DTT, 2.5% glycerol, 5 mM MgCl2, 0.1% IGEPAL CA-630, 0.05 ug/uL poly(dI-dC); 500 ng protein, probe 5 uM; competitor 20 min then probe 30 min at room temperature. To be noted: protein: recombinant; tags: N-terminal GST (pDEST15); label: 5' biotin on strand 1 as probe; blunt.

The target in data set [2] is T2, GST-MYB95 (Arabidopsis thaliana, UniProt Q7DSY5 1-271).
T2 sequence: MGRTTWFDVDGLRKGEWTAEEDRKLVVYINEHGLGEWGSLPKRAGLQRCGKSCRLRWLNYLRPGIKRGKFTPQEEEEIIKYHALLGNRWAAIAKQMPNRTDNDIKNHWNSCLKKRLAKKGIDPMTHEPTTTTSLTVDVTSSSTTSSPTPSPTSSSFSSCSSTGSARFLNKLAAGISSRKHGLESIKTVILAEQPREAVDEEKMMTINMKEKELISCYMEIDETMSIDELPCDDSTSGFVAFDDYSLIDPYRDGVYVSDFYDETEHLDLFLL
Described as above. To be noted: protein: recombinant; tags: N-terminal GST (pDEST15); label: 5' biotin on strand 1 as probe; blunt.

For data set [3], the target named is T1, GST-MYB47. Description: competition EMSA; 20-fold excess over pTSA1 probe; 10 mM Tris-HCl pH 7.5, 50 mM KCl, 1 mM DTT, 2.5% glycerol, 5 mM MgCl2, 0.1% IGEPAL CA-630, 0.05 ug/uL poly(dI-dC); 500 ng protein, probe 5 uM; competitor 20 min then probe 30 min at room temperature. To be noted: protein: recombinant; tags: N-terminal GST (pDEST15); blunt.
The target in data set [4] is T2, GST-MYB95. Described as above. To be noted: protein: recombinant; tags: N-terminal GST (pDEST15); blunt.

B1: pTSA1 probe (dsDNA)
DNA 1: GAATGAAATCCACGTTTAAGTTAGTTACAACGGTTT
DNA 2: AAACCGTTGTAACTAACTTAAACGTGGATTTCATTC
On to B1, for which the binding result with GST-MYB47 [1] and with GST-MYB95 [2] was “binds” each time.

B2: pTSA1-m2 (box2 mutated) (dsDNA)
DNA 1: GAATGAAATCCACGTTTAACCCCTTTACAACGGTTT
DNA 2: AAACCGTTGTAAAGGGGTTAAACGTGGATTTCATTC
As for B2, the binding result with GST-MYB47 [3] and in the data set with GST-MYB95 [4] was “no binding” throughout.

B3: pTSA1-m1 (box1 mutated) (dsDNA)
DNA 1: GAATGAAATCTTTCCCCAAGTTAGTTACAACGGTTT
DNA 2: AAACCGTTGTAACTAACTTGGGGAAAGATTTCATTC
As for B3, the binding result with GST-MYB47 [3] and in the data set with GST-MYB95 [4] was “binds” each time.
